Bridges are numbered along the chain shown (N, C = ends). Where no end group is shown, it is not given here.
Biological target: recombinant human angiopoietin-2 (human) (UniProt O15123)
Experiment: direct ELISA, rhAng2 coated on microplate wells, detection by HRP-anti-His tag antibody, OD450

UniProt O15123, sequence (O15123 19-496 limits assumed): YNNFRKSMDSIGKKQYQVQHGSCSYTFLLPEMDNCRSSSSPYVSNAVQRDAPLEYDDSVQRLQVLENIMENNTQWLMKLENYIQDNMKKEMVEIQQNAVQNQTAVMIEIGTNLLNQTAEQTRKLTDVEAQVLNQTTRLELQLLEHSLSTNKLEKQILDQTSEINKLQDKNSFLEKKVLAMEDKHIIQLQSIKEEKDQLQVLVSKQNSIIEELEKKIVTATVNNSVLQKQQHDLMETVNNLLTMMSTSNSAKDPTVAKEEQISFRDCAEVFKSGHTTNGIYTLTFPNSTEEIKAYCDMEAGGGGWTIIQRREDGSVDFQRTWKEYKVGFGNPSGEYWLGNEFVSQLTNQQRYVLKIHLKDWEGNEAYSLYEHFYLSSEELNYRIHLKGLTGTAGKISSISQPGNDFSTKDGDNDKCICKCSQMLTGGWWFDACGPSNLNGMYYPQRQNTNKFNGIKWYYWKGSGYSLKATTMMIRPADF

EC50 (read off the curve): 8 nM
B1: Construct 12: ELP-MRD fusion protein with a constrained rhAng2-targeting peptide (ANGd) sandwiched between ELP repeat modules (designed binder, not shown: small tags and cut ends)
chain: LWDDCYSFPNPPHCYNSP
modifications: disulfide 5-14 (inferred); not fully specified (N-terminus, C-terminus); also: peptide sandwiched between ELP repeat modules, ELP composition not given here
